Measured values as given in PMC5560549.

Legend:
[1] = biological target: human FcRn (neonatal Fc receptor), biotinylated (human) (UniProt P55899); assay: SPR; Biacore 3000; biotinylated FcRn captured on streptavidin coupled to a CM5 chip; antibody 0-10 nM in HBS-EP pH 6.0 injected at 50 ul/min, 3 min association, 3 min dissociation; regeneration with HBS-EP pH 8.0; 1:1 Langmuir model
[2] = biological target: human FcRn (Sino Biological), biotinylated (UniProt P55899); assay: ELISA; conditions: 37°C (incubations), PBS (concentration not stated), PBST (PBS + 0.05% (v/v) Tween 20) adjusted to pH 6.0 or pH 7.4 for the washes. The pH of the antibody dilution buffer is
[3] = biological target: human FcRn (Sino Biological), biotinylated (UniProt P55899); assay: SPR (Biacore 3000); conditions: pH 6.0, not stated for this buffer (the HBS-EP+ used in the PCSK9 experiments contained 150 mM NaCl), HBS-EP buffer pH 6.0. Its composition is not given. The HBS-EP+ of the PCSK9 SPR section was 10 mM HEPES, 3

Substance | Kd [1] [nM] | koff [1] [s⁻¹] | kon [1] [M⁻¹ s⁻¹] | EC50 ([2]; pH 6.0) [µg/mL] | EC50 ([2]; pH 7.4) [µg/mL] | ka [3] [M⁻¹ s⁻¹] | kd [3] [s⁻¹]
F0016C, Fc variant M429L/N435S of F0016A (antibody) | 1.76 | 0.0024 | 1.36e+06 | – | – | – | –
F0016D, Fc variant M253Y/S255T/T257E of F0016A (antibody) | 1.91 | 0.00201 | 1.05e+06 | – | – | – | –
F0016D (alirocumab Fc M253Y/S255T/T257E) M253Y;S255T;T257E | – | – | – | 1.75 | 8.87 | 1.05e+06 | 0.00201
F0016B (alirocumab Fc T251Q/M429L) T251Q;M429L | – | – | – | 3.47 | 12.2 | 1.43e+06 | 0.00302

The next lines start with the values.

Kd [1] [nM] | koff [1] [s⁻¹] | kon [1] [M⁻¹ s⁻¹] | EC50 ([2]; pH 6.0) [µg/mL] | EC50 ([2]; pH 7.4) [µg/mL] | ka [3] [M⁻¹ s⁻¹] | kd [3] [s⁻¹] | Substance
4.88 | 0.00617 | 1.27e+06 | – | – | – | – | F0016A, a human IgG1 anti-PCSK9 mAb (alirocumab) (antibody)
– | – | – | 30.4 | 45.1 | 1.27e+06 | 0.00617 | F0016A (alirocumab sequence, wild-type Fc)
– | – | – | 1.56 | 16.5 | 1.36e+06 | 0.0024 | F0016C (alirocumab Fc M429L/N435S) M429L;N435S
2.11 | 0.00302 | 1.43e+06 | – | – | – | – | F0016B, Fc variant T251Q/M429L of F0016A (antibody)
